Results reported in publication PMC10397247.
Like-named read-outs stand apart in the source and are kept apart here. One block for each binder: values may come before it.

Experiments:
Core_IIIN-es_KKKE = molecular target: T1, Core_IIIN-es_KKKE; assay: two-hybrid library CCmax; details: mean of both orientations;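 further: natural log of median RNA to DNA barcode read ratio; higher means stronger binding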
T1 chain: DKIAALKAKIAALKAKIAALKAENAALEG

4H2466-AA = molecular target: T2, 4H2466-AA; assay: two-hybrid library CCmax; details: mean of both orientations;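 further: natural log of median RNA to DNA barcode read ratio; higher means stronger binding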
T2 chain: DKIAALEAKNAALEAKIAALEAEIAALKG

4H249-AA = molecular target: T3, 4H249-AA; assay: two-hybrid library CCmax; details: mean of both orientations;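 further: natural log of median RNA to DNA barcode read ratio; higher means stronger binding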
T3 chain: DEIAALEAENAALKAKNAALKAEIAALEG

4H1650-AA = molecular target: T4, 4H1650-AA; assay: two-hybrid library CCmax; details: mean of both orientations;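 further: natural log of median RNA to DNA barcode read ratio; higher means stronger binding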
T4 chain: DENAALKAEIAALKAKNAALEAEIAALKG

4H3015-AA = molecular target: T5, 4H3015-AA; assay: two-hybrid library CCmax; details: mean of both orientations
T5 chain: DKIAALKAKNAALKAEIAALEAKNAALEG

4H1615-AA = molecular target: T6, 4H1615-AA; assay: two-hybrid library CCmax
T6 chain: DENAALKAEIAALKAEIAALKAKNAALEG

4H2343-AA = molecular target: T7, 4H2343-AA; assay: two-hybrid library CCmax; details: mean of both orientations
T7 chain: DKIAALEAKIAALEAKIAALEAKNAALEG

4H2330-AA = molecular target: T8, 4H2330-AA; assay: two-hybrid library CCmax; details: mean of both orientations
T8 chain: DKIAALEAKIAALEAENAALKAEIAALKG

4H1930-AA = molecular target: T9, 4H1930-AA; assay: two-hybrid library CCmax; details: mean of both orientations
T9 chain: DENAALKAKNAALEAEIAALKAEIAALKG

4H175-AA = molecular target: T10, 4H175-AA; assay: two-hybrid library CCmax; details: mean of both orientations
T10 chain: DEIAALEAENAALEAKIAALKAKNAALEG

4H3001-AA = molecular target: T11, 4H3001-AA; assay: two-hybrid library CCmax; details: mean of both orientations
T11 chain: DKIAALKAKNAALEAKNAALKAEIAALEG

4H_GCN4 = assay: two-hybrid library CCmax
4H3438-AA = molecular target: T12, 4H3438-AA; assay: two-hybrid library CCmax; details: mean of both orientations
T12 chain: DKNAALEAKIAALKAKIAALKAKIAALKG

4H452-AA = molecular target: T13, 4H452-AA; assay: two-hybrid library CCmax; details: mean of both orientations
T13 chain: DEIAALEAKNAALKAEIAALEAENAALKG

4H56-AA = molecular target: T14, 4H56-AA; assay: two-hybrid library CCmax; details: mean of both orientations
T14 chain: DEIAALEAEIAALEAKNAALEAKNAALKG

4H2253-AA = molecular target: T15, 4H2253-AA; assay: two-hybrid library CCmax
T15 chain: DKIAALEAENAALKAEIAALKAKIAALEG

4H2774-AA = molecular target: T16, 4H2774-AA; assay: two-hybrid library CCmax; details: mean of both orientations
T16 chain: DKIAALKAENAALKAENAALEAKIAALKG

4H_BCR = molecular target: T17, 4H_BCR; assay: two-hybrid library CCmax; details: mean of both orientations
T17 chain: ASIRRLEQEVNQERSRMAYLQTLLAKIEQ

4H2124-AA = molecular target: T18, 4H2124-AA; assay: two-hybrid library CCmax; details: mean of both orientations
T18 chain: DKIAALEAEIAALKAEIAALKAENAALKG

4H347-AA = molecular target: T19, 4H347-AA; assay: two-hybrid library CCmax; details: mean of both orientations
T19 chain: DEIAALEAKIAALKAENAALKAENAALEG

4H2931-AA = molecular target: T20, 4H2931-AA; assay: two-hybrid library CCmax; details: mean of both orientations
T20 chain: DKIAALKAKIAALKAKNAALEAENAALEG

4H406-AA = molecular target: T21, 4H406-AA; assay: two-hybrid library CCmax; details: mean of both orientations
T21 chain: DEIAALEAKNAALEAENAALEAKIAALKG

4H1828-AA = molecular target: T22, 4H1828-AA; assay: two-hybrid library CCmax; details: mean of both orientations
T22 chain: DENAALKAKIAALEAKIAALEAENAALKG

4H1765-AA = molecular target: T23, 4H1765-AA; assay: two-hybrid library CCmax; details: mean of both orientations
T23 chain: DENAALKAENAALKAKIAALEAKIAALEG

4H_APH = molecular target: T24, 4H_APH; assay: two-hybrid library CCmax; details: mean of both orientations
T24 chain: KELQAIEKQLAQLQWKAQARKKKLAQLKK

GCN2_T = assay: two-hybrid library CCmax
4H2592-AA = molecular target: T25, 4H2592-AA; assay: two-hybrid library CCmax; details: mean of both orientations
T25 chain: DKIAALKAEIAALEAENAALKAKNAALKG

4H1821-AA = molecular target: T26, 4H1821-AA; assay: two-hybrid library CCmax; details: mean of both orientations
T26 chain: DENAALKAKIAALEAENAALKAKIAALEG

4H2732-AA = molecular target: T27, 4H2732-AA; assay: two-hybrid library CCmax; details: mean of both orientations
T27 chain: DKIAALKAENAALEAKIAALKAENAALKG

4H3073-AA = molecular target: T28, 4H3073-AA; assay: two-hybrid library CCmax; details: mean of both orientations
T28 chain: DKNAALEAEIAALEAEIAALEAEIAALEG

4H2165-AA = molecular target: T29, 4H2165-AA; assay: two-hybrid library CCmax; details: mean of both orientations
T29 chain: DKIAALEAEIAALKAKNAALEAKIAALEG

Core_INNN-es_KEKE = molecular target: T30, Core_INNN-es_KEKE; assay: two-hybrid library CCmax; details: mean of both orientations
T30 chain: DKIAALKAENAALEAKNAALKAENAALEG

GCN4-SR [1] = molecular target: T31, GCN4-SR; assay: two-hybrid library CCmax
T31 chain: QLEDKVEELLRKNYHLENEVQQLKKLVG

GCN4-SR [2] = molecular target: T31, GCN4-SR; assay: two-hybrid library CCNG1
Core_IIII-es_KKKE = molecular target: T32, Core_IIII-es_KKKE; assay: two-hybrid library CCmax; details: mean of both orientations
T32 chain: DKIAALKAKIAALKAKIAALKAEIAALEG

4H384-AA = molecular target: T33, 4H384-AA; assay: two-hybrid library CCmax
T33 chain: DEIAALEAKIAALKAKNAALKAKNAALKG

4H1070-AA = molecular target: T34, 4H1070-AA; assay: two-hybrid library CCmax
T34 chain: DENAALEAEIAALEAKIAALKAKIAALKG

4H1392-AA = molecular target: T35, 4H1392-AA; assay: two-hybrid library CCmax; details: mean of both orientations
T35 chain: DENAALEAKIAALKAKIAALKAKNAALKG

4H2736-AA = molecular target: T36, 4H2736-AA; assay: two-hybrid library CCmax; details: mean of both orientations
T36 chain: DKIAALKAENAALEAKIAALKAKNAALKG

O13-AA = molecular target: T37, O13-AA; assay: two-hybrid library CCmax; details: mean of both orientations
T37 chain: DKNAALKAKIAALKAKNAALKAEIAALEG

4H3590-AA = molecular target: T38, 4H3590-AA; assay: two-hybrid library CCmax; details: mean of both orientations
T38 chain: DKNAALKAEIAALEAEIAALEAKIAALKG

4H3049-AA = molecular target: T39, 4H3049-AA; assay: two-hybrid library CCmax; details: mean of both orientations
T39 chain: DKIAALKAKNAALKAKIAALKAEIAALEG

4H2705-AA = molecular target: T40, 4H2705-AA; assay: two-hybrid library CCmax; details: mean of both orientations
T40 chain: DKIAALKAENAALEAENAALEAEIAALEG

O14-AA = molecular target: T41, O14-AA; assay: two-hybrid library CCmax; details: mean of both orientations
T41 chain: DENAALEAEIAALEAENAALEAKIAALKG

4H2622-AA = molecular target: T42, 4H2622-AA; assay: two-hybrid library CCmax; details: mean of both orientations
T42 chain: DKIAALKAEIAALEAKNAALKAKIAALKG

4H451-AA = molecular target: T43, 4H451-AA; assay: two-hybrid library CCmax; details: mean of both orientations
T43 chain: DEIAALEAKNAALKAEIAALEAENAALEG

4H337-AA = molecular target: T44, 4H337-AA; assay: two-hybrid library CCmax; details: mean of both orientations
T44 chain: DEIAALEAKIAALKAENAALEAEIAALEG

4H3625-AA = molecular target: T45, 4H3625-AA; assay: two-hybrid library CCmax; details: mean of both orientations
T45 chain: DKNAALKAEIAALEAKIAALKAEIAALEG

4H43-AA = molecular target: T46, 4H43-AA; assay: two-hybrid library CCmax; details: mean of both orientations
T46 chain: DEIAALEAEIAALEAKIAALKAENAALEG

4H4038-AA = molecular target: T47, 4H4038-AA; assay: two-hybrid library CCmax; details: mean of both orientations
T47 chain: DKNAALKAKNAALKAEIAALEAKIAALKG

4H1350-AA = molecular target: T48, 4H1350-AA; assay: two-hybrid library CCmax; details: mean of both orientations
T48 chain: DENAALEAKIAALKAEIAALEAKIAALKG

4H1193-AA = molecular target: T49, 4H1193-AA; assay: two-hybrid library CCmax; details: mean of both orientations
T49 chain: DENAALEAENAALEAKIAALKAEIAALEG

O11-AA = molecular target: T50, O11-AA; assay: two-hybrid library CCmax
T50 chain: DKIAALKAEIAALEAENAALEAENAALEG

4H2888-AA = molecular target: T51, 4H2888-AA; assay: two-hybrid library CCmax; details: mean of both orientations
T51 chain: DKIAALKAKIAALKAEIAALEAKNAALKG

4H3587-AA = molecular target: T52, 4H3587-AA; assay: two-hybrid library CCmax; details: mean of both orientations
T52 chain: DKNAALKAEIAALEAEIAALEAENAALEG

4H3905-AA = molecular target: T53, 4H3905-AA; assay: two-hybrid library CCmax; details: mean of both orientations
T53 chain: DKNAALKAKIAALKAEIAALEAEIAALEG

4H134-AA = molecular target: T54, 4H134-AA; assay: two-hybrid library CCmax; details: mean of both orientations
T54 chain: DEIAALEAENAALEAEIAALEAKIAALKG

4H510-AA = molecular target: T55, 4H510-AA; assay: two-hybrid library CCmax; details: mean of both orientations
T55 chain: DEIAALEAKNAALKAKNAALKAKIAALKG

4H1385-AA = molecular target: T56, 4H1385-AA; assay: two-hybrid library CCmax; details: mean of both orientations
T56 chain: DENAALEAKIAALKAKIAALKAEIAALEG

Core_INII-es_KKKK = molecular target: T57, Core_INII-es_KKKK; assay: two-hybrid library CCmax
T57 chain: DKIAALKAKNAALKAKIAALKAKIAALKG

Sequence of 4H_GCN4 (chain, as listed by the source): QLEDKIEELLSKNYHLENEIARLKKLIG

Binder: DEIAALEAEIAALEAEIAALEAKNAALKG [Core_IIIN-es_EEEK]
interaction score (Core_IIIN-es_KKKE): 2.19

Binder: DENAALKAEIAALKAEIAALKAKNAALEG [4H1615-AA]
interaction score (4H2466-AA): -1.57
interaction score (4H249-AA): -2.1
interaction score (4H1650-AA): -1.46
interaction score (4H3015-AA): -1.68
interaction score (4H1615-AA): 1.78
interaction score (4H2343-AA): -0.958
interaction score (4H2330-AA): -1.4
interaction score (4H1930-AA): -1.07
interaction score (4H175-AA): -1.43
interaction score (4H3001-AA): -1.81
interaction score (4H_GCN4): -1.57
interaction score (4H3438-AA): -0.739
interaction score (4H452-AA): -1.96
interaction score (4H56-AA): -1.15
interaction score (4H2253-AA): -1.57
interaction score (4H2774-AA): -1.47
interaction score (4H_BCR): -1.79
interaction score (4H2124-AA): -1.09
interaction score (4H347-AA): -1.38
interaction score (4H2931-AA): -1.79
interaction score (4H406-AA): -1.66
interaction score (4H1828-AA): -1.78
interaction score (4H1765-AA): -1.45
interaction score (4H_APH): -1.58
interaction score (GCN2_T; mean of both orientations): -1.38
interaction score (4H2592-AA): -1.27
interaction score (4H1821-AA): -1.23
interaction score (4H2732-AA): -1.79
interaction score (4H3073-AA): -0.406
interaction score (4H2165-AA): -1.55

Binder: DEIAALEAEIAALEAEIAALEAKIAALKG [Core_IIII-es_EEEK]
interaction score (Core_IIII-es_KKKE): 2.4

Binder: DENAALEAEIAALEAKIAALKAKIAALKG [4H1070-AA]
interaction score (4H384-AA): -0.364
interaction score (4H1070-AA): 2.05
interaction score (4H1392-AA): -0.733
interaction score (4H2736-AA): -0.965
interaction score (O13-AA): -0.784
interaction score (4H3590-AA): 2.25
interaction score (4H3049-AA): 0.86
interaction score (4H2705-AA): -1.19
interaction score (4H_GCN4; mean of both orientations): -1.5
interaction score (O14-AA): 0.236
interaction score (4H2622-AA): 1.21
interaction score (4H451-AA): -1.11
interaction score (4H337-AA): 0.472
interaction score (4H_BCR): -1.54
interaction score (4H3625-AA): 1.73
interaction score (4H43-AA): 1.94
interaction score (4H4038-AA): 1.53
interaction score (4H1350-AA): 1.96
interaction score (4H1193-AA): -0.64
interaction score (O11-AA): 1.22
interaction score (4H2888-AA): 1.51
interaction score (4H3587-AA): 1.56
interaction score (GCN2_T): -0.746
interaction score (4H3905-AA): 2.23
interaction score (4H134-AA): 1.2
interaction score (4H510-AA): -1.68
interaction score (4H1385-AA): 1.6

Results, then the binder that gave them:

interaction score (Core_INNN-es_KEKE): 2
Binder: DEIAALEAKNAALKAENAALEAKNAALKG [Core_INNN-es_EKEK]

interaction score (GCN4-SR [1]): -1.35
interaction score (GCN4-SR [2]): -2.35
Binder: QLEDKVEELLRKNYHLENEVQQLKKLVG [GCN4-SR]

interaction score (Core_INII-es_KKKK): 1.29
Binder: DEIAALEAENAALEAEIAALEAEIAALEG [Core_INII-es_EEEE]
